Like-named read-outs stand apart in the source and are kept apart here.
Assays:
ABI1 [1] = assay: Phosphatase activity assay (pNPP) with purified PP2Cs and PYLs; format: biochemical, Arabidopsis thaliana; conditions: in the presence of 10 μM ABA; ABI1 and PYLs 0.3 μM
Method: The inhibition by PYL13 is ABA-independent, whereas the inhibition by PYR1 and PYL2 is ABA-induced (FIG. 4B). […] The phosphatase activities of PP2CA, ABI1, and ABI2 were measured in the absence or presence of ABA (1.25 μM), and with or without PYLs. The concentration of PP2Cs and PYLs was 0.3 μM. The A405 value of reaction without PP2C was set as 0% and that of the reaction with PP2C but without ABA and PYLs was set as 100%. Error bars indicate s.e.m. (n=6 for PP2CA and ABI2, and n=3 for ABI1).
To test the functional significance of potential heterodimer formation between PYL13 and other PYLs, the abilities of PYL1 and PYL2 and the protein complexes PYL13-PYL1 and PYL13-PYL2 to inhibit the phosphatase activity of ABI1 were compared using purified recombinant proteins and the synthetic phosphatase substrate pNPP. […] The phosphatase activity of ABI1 was measured (using pNPP) in the absence or presence of 10 μM ABA, with or without PYLs, and with PYL13-PYL dimers. The concentration of ABI1 and PYLs was 0.3 μM. The A405 value of reaction without ABI1 was set as 0% and that of the reaction with ABI1 but without ABA and PYLs was set as 100%. Error bars indicate s.e.m. (n=6). In the presence of 10 μM ABA, ABI1 phosphatase activity was reduced to 67±6% by PYL1 but only to 88±8% by PYL13-PYL1. In the presence of 10 μM ABA, ABI1 phosphatase activity was reduced to 50±3% by PYL2 but only to 78±10% by PYL13-PYL2.
Phosphatase activity was measured using the colorimetric substrate p-nitrophenyl phosphate (pNPP, SIGMA). Reactions were performed in a reaction buffer containing 50 mM Tris-HCl, pH 7.5, 25 mM Mg(OAc)2, 2 mM MnCl2, 0.5 mM EGTA, 0.5% β-mercaptoethanol, and 0.5% BSA. ABA and PYLs were added as indicated. The concentration of PP2Cs and PYLs was 0.3 μM. Reactions were initiated by the addition of pNPP to a final concentration of 50 mM. The hydrolysis of pNPP was measured by following the absorbance at 405 nm (A405). Because His-PYL13 is difficult to purify, is prone to degradation, and rapidly loses activity, newly purified PYL13 was used for the phosphatase activity assay.

ABI1 [2] = biological target: T1, ABI1 (Arabidopsis thaliana, UniProt P49597+Q8H1R0); conditions: read-out: dissociation constant (Kd) of PYL10-ABI1 interaction, cited from earlier work
T1 sequence (P49597 1-434): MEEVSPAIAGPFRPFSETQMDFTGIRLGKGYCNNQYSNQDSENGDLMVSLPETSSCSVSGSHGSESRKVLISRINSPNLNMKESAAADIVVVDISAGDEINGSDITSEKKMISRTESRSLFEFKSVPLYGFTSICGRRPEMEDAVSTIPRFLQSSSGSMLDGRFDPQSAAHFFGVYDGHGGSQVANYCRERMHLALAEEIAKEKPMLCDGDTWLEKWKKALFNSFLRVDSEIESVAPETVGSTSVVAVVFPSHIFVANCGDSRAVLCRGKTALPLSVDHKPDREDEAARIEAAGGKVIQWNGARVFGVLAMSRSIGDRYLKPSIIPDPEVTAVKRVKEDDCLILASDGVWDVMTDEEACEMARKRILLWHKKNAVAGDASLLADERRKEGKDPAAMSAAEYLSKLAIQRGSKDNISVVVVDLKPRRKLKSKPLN
T1 sequence (Q8H1R0 1-183): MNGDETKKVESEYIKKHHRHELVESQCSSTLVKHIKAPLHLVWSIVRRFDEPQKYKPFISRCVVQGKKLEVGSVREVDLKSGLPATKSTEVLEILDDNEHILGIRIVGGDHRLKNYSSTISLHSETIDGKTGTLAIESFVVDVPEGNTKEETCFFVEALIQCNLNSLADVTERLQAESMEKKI

**Q.** With “PYL1: Arabidopsis thaliana PYL family ABA receptor protein PYL1, AT5G46790” as the molecule, how does the “ABI1 phosphatase activity reduced to” value (ABI1 [1]) read?
**A.** Its value is 67±6%.

**Q.** With “PYL13-PYL1: protein complex (heterodimer) of purified recombinant PYL13 and PYL1” as the molecule, how does the “ABI1 phosphatase activity reduced to” value (ABI1 [1]) read?
**A.** The value was 88±8%.

**Q.** For “PYL13-PYL2: protein complex (heterodimer) of purified recombinant PYL13 and PYL2”, which “ABI1 phosphatase activity reduced to” value (ABI1 [1]) is on record?
**A.** The value was 78±10%.

B1: PYL10: Arabidopsis thaliana PYL family protein PYL10, AT4G27920 (protein, listed as Arabidopsis thaliana)
chain: MNGDETKKVESEYIKKHHRHELVESQCSSTLVKHIKAPLHLVWSIVRRFDEPQKYKPFISRCVVQGKKLEVGSVREVDLKSGLPATKSTEVLEILDDNEHILGIRIVGGDHRLKNYSSTISLHSETIDGKTGTLAIESFVVDVPEGNTKEETCFFVEALIQCNLNSLADVTERLQAESMEKKI
**Q.** Which Kd (ABI1 [2]; with ABA) does the source give for B1 here?
**A.** The Kd was 20 nM.

**Q.** What about the Kd (ABI1 [2]; without ABA) of the same molecule?
**A.** The Kd was 1200 nM.

Source: US9518268B2, “Drought tolerant transgenic plants and method of making same” (PURDUE RESEARCH FOUNDATION, priority 2013, dated 2016)
